Data reported in patent US20230027475A1 (ADMARE THERAPEUTICS SOCIETY, published 2023).

T1: A56.hFc (Vaccinia virus, Wyeth strain, UniProt P20978 17-279)
T1 construct: also called A56 human Fc fusion protein; A56 protein
T1 chain: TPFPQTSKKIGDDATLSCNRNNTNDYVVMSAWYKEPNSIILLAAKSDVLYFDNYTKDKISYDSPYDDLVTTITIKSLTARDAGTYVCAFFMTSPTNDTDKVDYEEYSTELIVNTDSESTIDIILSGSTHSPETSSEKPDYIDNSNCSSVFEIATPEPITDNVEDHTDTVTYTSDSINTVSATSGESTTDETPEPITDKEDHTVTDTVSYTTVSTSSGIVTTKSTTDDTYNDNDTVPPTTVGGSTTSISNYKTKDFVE

T2: Vaccinia virus A56 antigen (Wyeth VV sequence) expressed on HEK cells (Vaccinia virus, Wyeth strain, UniProt P20978 17-315)
T2 construct: also called HEK-A56; HEK-A56 (GFP)
T2 chain: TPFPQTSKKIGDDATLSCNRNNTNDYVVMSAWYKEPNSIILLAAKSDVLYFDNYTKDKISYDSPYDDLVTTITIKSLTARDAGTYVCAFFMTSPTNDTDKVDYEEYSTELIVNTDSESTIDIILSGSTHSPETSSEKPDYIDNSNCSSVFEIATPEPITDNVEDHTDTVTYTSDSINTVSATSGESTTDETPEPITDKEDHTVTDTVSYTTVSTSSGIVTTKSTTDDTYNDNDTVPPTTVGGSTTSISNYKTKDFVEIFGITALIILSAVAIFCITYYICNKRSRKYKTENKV

B1: A051 (antibody, V domains shown)
VH: QEQVEESGGGLAKPGASLTLTCEASGFTLSSYWMCWVRQAPGKGLEWIACIYGGSSGSTYYSNWAKGRFTISKTSSTTVTLQMTSLTAADTATYFCARDGSTWDYFRLWGPGTLVTVSS
VL: YDMTQTPSSVEAAVGGTVTIKCQASQSINTNYLSWYQQKPGQPPKLLIYQASTLESGVPSRFKGSGSGTEYTLTISDLECADAATYYCQGYYTVENIGNPFGGGTEVVVK
notes: also called anti-B5 rabbit antibody A051 hIgG1
B2: A047 (antibody, V domains shown)
VH: QEQLEESGGDLVKPEGSLTLTCTASGFSFSSSYWICWVRQAPGKGLEWIACIYAGSGGSTYYATWAKGRFTISKTSSTTVTLQMTSLTAADTASYFCVRAYSDRSGGYSFNLWGPGTLVTVSS
VL: QVLTQTASPVSAAVGGTVTINCQASQSVDNNNYLAWYQQKPGQPPKQLIYSASSLASGVPSRFKGSGSGTQFTLTISDVQCDDAATYYCLGSYDCSDADCYAFGGGTEVVVK
notes: also called A047 (A56); anti-A56 rabbit antibody A047 hIgG1
B3: A050 (antibody, V domains shown)
VH: QSLEESGGDLVKPGASLTLTCTASGFSFSSSYWLCWARQAPGKGPEWIACIYNGDGSTHYASWAKGRFTISKSSSTTVTLQMTSLTAADTATYFCARDYTYNFYTYGFNLWGPGTLVTVSS
VL: FELTQTPSSVEAAVGGTVTINCQASQSVNIWASWYQQKPGQPPKLLIYKASTLASGVPSRFKGSGSGTEFTLTISDLECADAATYYCQGGYPSSSSGWAFGGGTEVVVK
notes: also called A050 (A56); anti-A56 rabbit antibody A050 hIgG1
B4: A054 (antibody, V domains shown)
VH: QEQVVESGGGLVKPGASLTLTCTASGFTLSSSYWICWVRQAPGKGPEWIACTYNGDGSTHYASWAKGRFTISKSSSTTVTLQMTSLTAADTATYFCARDYTDAFYTYGFNLWGPGTLVTVSS
VL: DIVMTQTPASVSEPVGGTVTIKCQASQSTSSYLAWYQQKPGQPPKLLIYRASSLASGVPSRFKGSGSATEFTLTISDLECADAATYYCQTGFYGSSGHTFGGGTEVVVK
notes: also called A054 (A56); anti-A56 rabbit antibody A054 hIgG1
B5: A059 (antibody, V domains shown)
VH: QSLEESGGDLVKPGASLTLTCTASGIDFSDIYYISWVRQAPGKGLEWIACTYAGSSGSTYYATWAKGRFTISKASSTTVTLQMTSLTAADTATYFCARDRYPGTSGRVYGMDLWGPGTLVTVSS
VL: VVMTQTPSSVSEPVGGTVTIKCQASQSISDLLSWYQQKPGQPPKLLIYSASTLASGVSSRFKGSGSGTEFTLTISDLECADAATYYCQCNYYSPTYGNGFGGGTEVVVK
notes: also called A059 anti-A56, Rb/Mu IgG2a; A049/A059/A056
B6: A056 (antibody, V domains shown)
VH: B5 VH
VL: B5 VL
notes: also called A056 anti-A56, Rb IgG; anti-A56-PE (A056, Rb IgG)
B7: A073 (antibody, V domains shown)
VH: QEQLEESGGGLVKPEGSLTLTCTASGFSFSSSYYMCWVRQAPGRGLEWIACIYTSSGSAYYANWAKGRFTISRTSSTTVTLQMTRLTAADTATYFCVRNAVGSSYYLYLWGPGTLVTVSS
VL: QVLTQTPSPVSAAVGGTVTISCQASQSVAGNNYLSWYQQKPGQPPNLLIYSVSTLASGVPSRFKGSGSGTQFTLTISDLECDDAATYYCQGYYNDGIWAFGGGTEVVVK
notes: also called A073 anti-B5, Rb IgG; anti-B5-PE (A073, Rb IgG)
B8: A058 (antibody, V domains shown)
VH: B7 VH
VL: B7 VL
notes: also called A058 anti-B5, Rb/Mu IgG2a; A048/A058/A073
B9: A048 (antibody, V domains shown)
VH: B7 VH
VL: B7 VL
notes: also called anti-B5 A048 hIgG1
B10: A049 (antibody, V domains shown)
VH: B5 VH
VL: B5 VL
notes: also called A049 (A56); A049 anti-A56 hIgG1

How the values were obtained:
[1] = molecular target: T3, Vaccinia virus B5 antigen, Western Reserve strain VVdd (eGFP) (Vaccinia virus, Western Reserve strain, UniProt Q01227 18-317); assay: ELISA on plate-coated VVdd (eGFP) virus particles, HRP anti-hIgG Fc, upper panel
T3 construct: also called B5 on VVdd (eGFP)-infected cells

[2] = molecular target: T4, Vaccinia virus B5 antigen (Wyeth VV sequence) expressed on HEK cells (Vaccinia virus, Wyeth strain, UniProt O57254 18-317); assay: flow cytometry on HEK-B5 (GFP) cells
T4 construct: also called HEK-B5; HEK-B5 (GFP)

A56.hFc [3] = molecular target: T1, A56.hFc; assay: SPR Biacore T200, antibody amine-coupled, […]
[4] = molecular target: T4, Vaccinia virus B5 antigen (Wyeth VV …); assay: flow cytometry on HEK-B5 (GFP) cells (panel 'HEKB5')
[5] = molecular target: T2, Vaccinia virus A56 antigen (Wyeth VV …); assay: flow cytometry on HEK-A56 (GFP) cells
A56.hFc [6] = molecular target: T1, A56.hFc; assay: SPR Biacore T200, antibody amine-coupled, A56.hFc as analyte, 1:1 Langmuir fit
[7] = molecular target: T5, Vaccinia virus A56 antigen, Western Reserve strain VVdd (eGFP) (Vaccinia virus, Western Reserve strain, UniProt Q01218 17-314); assay: ELISA on plate-coated VVdd (eGFP) virus particles, HRP anti-hIgG Fc, lower panel
T5 construct: also called A56 on VVdd (eGFP)-infected cells

[8] = molecular target: T5, Vaccinia virus A56 antigen, Western …
[9] = molecular target: T5, Vaccinia virus A56 antigen, Western …; assay: flow cytometry on VVdd (eGFP)-infected A549 cells
[10] = molecular target: T4, Vaccinia virus B5 antigen (Wyeth VV …); assay: immunohistochemistry (DAB) on histogel sections of HEK-B5 cells
[11] = molecular target: T3, Vaccinia virus B5 antigen, Western …; assay: flow cytometry on VVdd (eGFP)-infected A549 cells
[12] = molecular target: T2, Vaccinia virus A56 antigen (Wyeth VV …); assay: immunohistochemistry (DAB) on histogel sections of HEK-A56 cells
[13] = molecular target: T3, Vaccinia virus B5 antigen, Western …; assay: flow cytometry on VVdd (eGFP)-infected A549 cells; remark: listed apart in the source
B5.hFc [14] = molecular target: T6, B5.hFc (Vaccinia virus, Wyeth strain, UniProt O57254 18-279); assay: SPR Biacore T200, antibody amine-coupled, […]
T6 construct: also called B5.hFc soluble antigen; B5 human Fc fusion protein

B5.hFc [15] = molecular target: T6, B5.hFc; assay: SPR Biacore T200, antibody amine-coupled, B5.hFc as analyte, 1:1 Langmuir fit
[16] = molecular target: T3, Vaccinia virus B5 antigen, Western …; assay: flow cytometry on VVdd (eGFP)-infected HT29 cells

Binder | Kd (A56.hFc [3]) [nM] | binding result [4] | binding result [5] | koff (A56.hFc [6]) [s⁻¹] | kon (A56.hFc [6]) [M⁻¹ s⁻¹] | EC50 [9] [nM] | EC50 [11] [nM] | also measured
B1 | – | – | – | – | – | – | – | binding result [1]: binds; binding result [2]: binds
B2 | 2.34 | no binding (tested: about 330 nM) | binds | 4.5e-05 | 19200 | – | – | binding result [7]: binds
B3 | 0.507 | no binding (tested: about 330 nM) | binds | 5.07e-05 | 99800 | – | – | binding result [7]: binds
B4 | 15.3 | no binding (tested: about 330 nM) | binds | 0.0141 | 925000 | – | – | EC50 (read off the curve) [8]: ~5 nM
B5 | – | – | – | – | – | 5 | – | binding result [10]: no binding (tested: 10 ug/mL)
B6 | – | – | – | – | – | 16 | – | binding result [10]: no binding (tested: 10 ug/mL)
B7 | – | – | – | – | – | – | 3 | binding result [12]: no binding (tested: 10 ug/mL)
B8 | – | – | – | – | – | – | 3 | binding result [12]: no binding (tested: 10 ug/mL)
B9 | – | – | – | – | – | – | 9 | EC50 [13]: 6 nM; Kd (B5.hFc [14]): 0.745 nM; koff (B5.hFc [15]): 2.21e-05 s⁻¹; kon (B5.hFc [15]): 29700 M⁻¹ s⁻¹; EC50 [16]: 1.1 nM
B10 | ≤ 0.1 | – | – | 2.27e-05 | 395000 | 14 | – | –
